According to patent US20200199241A1 (Chugai, published 2020):

T1: human FcγRIIa(H) (human, UniProt P12318 36-217)
T1 construct: also called FcgRIIaH; FcγRIIa type H
T1 sequence: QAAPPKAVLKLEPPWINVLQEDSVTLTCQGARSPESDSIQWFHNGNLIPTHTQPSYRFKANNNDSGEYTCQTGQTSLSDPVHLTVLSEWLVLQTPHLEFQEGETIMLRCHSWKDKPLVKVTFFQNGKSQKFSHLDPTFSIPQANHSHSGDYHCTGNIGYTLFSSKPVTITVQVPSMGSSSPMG

T2: human FcγRIIa(R) (human, UniProt P12318 36-217)
T2 construct: also called FcgRIIaR; FcγRIIa type R
T2 chain: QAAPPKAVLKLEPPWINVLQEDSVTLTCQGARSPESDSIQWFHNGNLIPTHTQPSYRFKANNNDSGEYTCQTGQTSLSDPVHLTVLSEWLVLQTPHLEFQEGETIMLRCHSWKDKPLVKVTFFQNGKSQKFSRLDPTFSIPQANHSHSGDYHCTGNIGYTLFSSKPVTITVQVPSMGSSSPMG

T3: human FcγRIIb (human, UniProt P31994 43-217, limits assumed)
T3 construct: also called FcgRIIb
T3 sequence: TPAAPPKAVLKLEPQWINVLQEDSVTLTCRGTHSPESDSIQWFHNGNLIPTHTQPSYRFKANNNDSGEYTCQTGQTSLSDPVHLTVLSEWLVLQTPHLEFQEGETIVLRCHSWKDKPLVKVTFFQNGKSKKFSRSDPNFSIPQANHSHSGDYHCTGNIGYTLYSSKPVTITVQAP


Columns and labels:
[1] = target: T4, soluble human FcRn complexed with β2-microglobulin (human, UniProt P61769 21-119, limits assumed); test: Biacore SPR, pH 7.0;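 note: test antibodies captured on a Protein L chip with human FcRn flowed over as analyte, KD obtained as the ratio of dissociation to association rate constants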
T4 construct: also called hFcRn
Protocol: A kinetic analysis of binding between human FcRn and the aforementioned antibodies was carried out using the BIACORE™ T100 or T200 surface plasmon resonance system (GE Healthcare). The antibodies being tested were captured on the CM4 Sensor Chip (GE Healthcare) on which a suitable amount of Protein L (ACTIGEN® protein (Alltech)) was suitably immobilized by amine coupling. Next, diluted human FcRn and a running buffer used as a blank were injected to allow the human FcRn to interact with the antibody captured on the sensor chip. A buffer consisting of 50 mmol/L sodium phosphate, 150 mmol/L NaCl and 0.05% (w/v) polysorbate 20 (Tween 20®) (pH 7.0 or pH 7.4) was used for the running buffer, and each buffer was also used to dilute the human FcRn. 10 mmol/L glycine-HCl (pH 1.5) was used to regenerate the sensor chip. All measurements of binding were carried out at 25° C. The KD(M) of each antibody to human FcRn was calculated based on kinetics parameters, i.e., the association rate constant ka (1/Ms) and the dissociation rate constant kd (1/s) calculated from a sensorgram obtained by the measurement. The BIACORE™ T100 or T200 Evaluation Software (GE Healthcare) was used to calculate each parameter.

[2] = target: T1, human FcγRIIa(H); test: SPR (Biacore);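 note: antibody variants captured on sensor chip, Fcγ receptor flowed over at 25 °C, bound receptor normalized to amount of captured antibody, expressed relative to reference antibody set as 100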
Protocol: (§1) Interaction between each modified antibody and Fcγ receptor prepared in the manner described above was analyzed using the BIACORE™ T100 surface plasmon resonance system (GE Healthcare), BIACORE™ T200 surface plasmon resonance system (GE Healthcare), BIACORE™ A100 surface plasmon resonance system or BIACORE™ 4000 surface plasmon resonance system. HBS-EP+ (GE Healthcare) was used for the running buffer, and measurements were carried out at 25° C. The chips used were chips in which antigen peptides, Protein A (Thermo Scientific), Protein A/G (Thermo Scientific) or Protein L (ACTIGEN® protein (Alltech or BioVision) were immobilized on the Series S Sensor Chip CMS (GE Healthcare) or Series S Sensor Chip CM4 (GE Healthcare) by amine coupling, or chips in which preliminarily biotinylated antigen peptides were allowed to interact and then immobilized on the Series S Sensor Chip SA (certified) (GE Healthcare). The target antibodies were captured on these sensor chips, Fcγ receptor diluted with the running buffer was allowed to interact, followed by measurement of the amount of bound antibody. The amounts bound were compared between antibodies. However, since the amount of Fcγ receptor bound depends on the amount of captured antibody, the values used for comparison were first corrected by dividing the amount of Fcγ receptor bound by the captured amount of each antibody. Through reaction with 10 mM glycine-HCl at pH 1.5, the sensor chips were regenerated by washing off antibody captured on the sensor chips and used repeatedly.
(§2) Binding strength was evaluated according to the following method based on the results of analyzing the interaction with each FcγR. […] That value was then further multiplied by 100, and the resulting value was used as an indicator of relative binding activity to each FcγR.

[3] = target: T5, human FcγRIIIa(F) (human, UniProt P08637 17-208, limits assumed); test: SPR (Biacore);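 note: antibody variants captured on sensor chip, Fcγ receptor flowed over at 25 °C, bound receptor normalized to amount of captured antibody, expressed relative to reference antibody set as 100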
T5 construct: also called FcgRIIIaF; allotype F158
T5 sequence (P08637 other isoform, or with tags, fused parts or gaps limits assumed): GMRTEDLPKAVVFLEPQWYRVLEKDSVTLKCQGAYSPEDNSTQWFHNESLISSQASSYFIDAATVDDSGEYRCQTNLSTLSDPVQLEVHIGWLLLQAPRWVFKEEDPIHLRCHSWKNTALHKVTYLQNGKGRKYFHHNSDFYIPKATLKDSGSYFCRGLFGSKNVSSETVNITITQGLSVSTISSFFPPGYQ
Protocol: as §1, §2

[4] = target: T6, human FcγRIa (human, UniProt P12314 16-292, limits assumed); test: SPR (Biacore);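 note: antibody variants captured on sensor chip, Fcγ receptor flowed over at 25 °C, bound receptor normalized to amount of captured antibody, expressed relative to reference antibody set as 100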
T6 construct: also called FcgRIa; FcγRI (CD64)
T6 sequence (P12314 16-292 limits assumed): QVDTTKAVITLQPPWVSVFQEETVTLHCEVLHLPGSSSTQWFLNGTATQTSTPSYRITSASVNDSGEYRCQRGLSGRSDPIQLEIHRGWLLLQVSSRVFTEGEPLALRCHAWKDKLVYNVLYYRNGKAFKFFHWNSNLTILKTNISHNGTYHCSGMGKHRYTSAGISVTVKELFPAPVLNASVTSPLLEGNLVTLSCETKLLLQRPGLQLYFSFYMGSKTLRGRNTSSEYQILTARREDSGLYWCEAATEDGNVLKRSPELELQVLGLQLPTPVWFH
Protocol: as §1, §2

[5] = target: T2, human FcγRIIa(R); test: SPR (Biacore);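 note: antibody variants captured on sensor chip, Fcγ receptor flowed over at 25 °C, bound receptor normalized to amount of captured antibody, expressed relative to reference antibody set as 100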
Protocol: as §1, §2

[6] = target: T3, human FcγRIIb; test: SPR (Biacore)
Protocol: as §1, §2

Row | Binder | Kd [1] | relative binding activity [2] | relative binding activity [3] | relative binding activity [4] | relative binding activity [5] | relative binding activity [6]
1 | IgG1-F1378 (antibody, EU numbering; copies: 2 + 2) heavy: QVQLQESGPGLVKPSETLSLTCAVSGHSISHDHAWSWVRQPPGEGLEWIGFISYSGITNYNPSLQGRVTISRDNSKNTLYLQMNSLRAEDTAVYYCARSLARTTAMDYWGEGTLVTVSSASTKGPSVFPLAPSSKSTSGGTAALGCLVKDYFPEPVTVSWNSGALTSGVHTFPAVLQSSGLYSLSSVVTVPSSSLGTQTYICNVNHKPSNTKVDKKVEPKSCDKTHTCPPCPAPELRGGPKVFLFPPKPKDTLYISRTPEVTCVVVDVSHEDPEVKFNWYVDGVEVHNAKTKPREEQYNSTYRVVSVLTVLHQDWLNGKEYKCKVSNKALPAPIEKTISKAKGQPREPQVYTLPPSRDELTKNQVSLTCLVKGFYPSDIAVEWESNGQPENNYKTTPPVLDSDGSFFLYSKLTVDKSRWQQGNVFSCSVMHEALHYHTTQKSLSLSP light: not shown | 361 nM |  |  |  |  | 
2 | IgG1-F1379 (antibody, EU numbering; copies: 2 + 2) heavy: QVQLQESGPGLVKPSETLSLTCAVSGHSISHDHAWSWVRQPPGEGLEWIGFISYSGITNYNPSLQGRVTISRDNSKNTLYLQMNSLRAEDTAVYYCARSLARTTAMDYWGEGTLVTVSSASTKGPSVFPLAPSSKSTSGGTAALGCLVKDYFPEPVTVSWNSGALTSGVHTFPAVLQSSGLYSLSSVVTVPSSSLGTQTYICNVNHKPSNTKVDKKVEPKSCDKTHTCPPCPAPELRGGPKVFLFPPKPKDTLYISRTPEVTCVVVDVSHEDPEVKFNWYVDGVEVHNAKTKPREEQYNSTYRVVSVLTVLHQDWLNGKEYKCKVSNKALPAPIEKTISKAKGQPREPQVYTLPPSRDELTKNQVSLTCLVKGFYPSDIAVEWESNGQPENNYKTTPPVLDSDGSFFLYSKLTVDKSRWQQGNVFSCSVMHEALHYHFTQKSLSLSP light: not shown | 285 nM |  |  |  |  | 
3 | GpH7-B3 variant E269K/GpL16-k0 (antibody, human IgG1, copies: 2 + 2) heavy: not shown light: DIVMTQSPLSLPVTPGEPASISCQASESLVHSNRNTYLHWYLQKPGQSPQLLIYKVSNRFSGVPDRFSGSGSGTDFTLKISRVEAEDVGVYYCSQNTHVPPTFGQGTKVEIE |  | 22 % of GpH7-B3/GpL16-k0 | 11 % of GpH7-B3/GpL16-k0 | 71 % of GpH7-B3/GpL16-k0 | 4 % of GpH7-B3/GpL16-k0 | 1 % of GpH7-B3/GpL16-k0
4 | GpH7-B3 variant D265A/GpL16-k0 (antibody, human IgG1, copies: 2 + 2) heavy: not shown light: DIVMTQSPLSLPVTPGEPASISCQASESLVHSNRNTYLHWYLQKPGQSPQLLIYKVSNRFSGVPDRFSGSGSGTDFTLKISRVEAEDVGVYYCSQNTHVPPTFGQGTKVEIE |  | 5 % of GpH7-B3/GpL16-k0 | -1 % of GpH7-B3/GpL16-k0 | 36 % of GpH7-B3/GpL16-k0 | 3 % of GpH7-B3/GpL16-k0 | 1 % of GpH7-B3/GpL16-k0
5 | GpH7-B3 variant G237Y/GpL16-k0 (antibody, human IgG1, copies: 2 + 2) heavy: not shown light: DIVMTQSPLSLPVTPGEPASISCQASESLVHSNRNTYLHWYLQKPGQSPQLLIYKVSNRFSGVPDRFSGSGSGTDFTLKISRVEAEDVGVYYCSQNTHVPPTFGQGTKVEIE |  | 4 % of GpH7-B3/GpL16-k0 | 0 % of GpH7-B3/GpL16-k0 | 7 % of GpH7-B3/GpL16-k0 | 77 % of GpH7-B3/GpL16-k0 | 

Now from value to binder:

Row | Kd [1] | relative binding activity [2] | relative binding activity [3] | relative binding activity [4] | relative binding activity [5] | relative binding activity [6] | Binder
6 |  | 0 % of GpH7-B3/GpL16-k0 | -1 % of GpH7-B3/GpL16-k0 | 2 % of GpH7-B3/GpL16-k0 | -1 % of GpH7-B3/GpL16-k0 | -2 % of GpH7-B3/GpL16-k0 | GpH7-B3 variant D265I/GpL16-k0 (antibody, human IgG1, copies: 2 + 2) heavy: not shown light: DIVMTQSPLSLPVTPGEPASISCQASESLVHSNRNTYLHWYLQKPGQSPQLLIYKVSNRFSGVPDRFSGSGSGTDFTLKISRVEAEDVGVYYCSQNTHVPPTFGQGTKVEIE
7 |  | 11 % of GpH7-B3/GpL16-k0 | 11 % of GpH7-B3/GpL16-k0 | 28 % of GpH7-B3/GpL16-k0 |  | 10 % of GpH7-B3/GpL16-k0 | GpH7-B3 variant L234G/GpL16-k0 (antibody, human IgG1, copies: 2 + 2) heavy: not shown light: DIVMTQSPLSLPVTPGEPASISCQASESLVHSNRNTYLHWYLQKPGQSPQLLIYKVSNRFSGVPDRFSGSGSGTDFTLKISRVEAEDVGVYYCSQNTHVPPTFGQGTKVEIE
8 |  | 0 % of GpH7-B3/GpL16-k0 | -2 % of GpH7-B3/GpL16-k0 | 2 % of GpH7-B3/GpL16-k0 | -1 % of GpH7-B3/GpL16-k0 | -2 % of GpH7-B3/GpL16-k0 | GpH7-B3 variant D265F/GpL16-k0 (antibody, human IgG1, copies: 2 + 2) heavy: not shown light: DIVMTQSPLSLPVTPGEPASISCQASESLVHSNRNTYLHWYLQKPGQSPQLLIYKVSNRFSGVPDRFSGSGSGTDFTLKISRVEAEDVGVYYCSQNTHVPPTFGQGTKVEIE
9 |  |  | 19 % of GpH7-B3/GpL16-k0 | 69 % of GpH7-B3/GpL16-k0 | 19 % of GpH7-B3/GpL16-k0 | 17 % of GpH7-B3/GpL16-k0 | GpH7-B3 variant S239W/GpL16-k0 (antibody, human IgG1, copies: 2 + 2) heavy: not shown light: DIVMTQSPLSLPVTPGEPASISCQASESLVHSNRNTYLHWYLQKPGQSPQLLIYKVSNRFSGVPDRFSGSGSGTDFTLKISRVEAEDVGVYYCSQNTHVPPTFGQGTKVEIE
10 |  | 13 % of GpH7-B3/GpL16-k0 | 1 % of GpH7-B3/GpL16-k0 | 52 % of GpH7-B3/GpL16-k0 |  | 5 % of GpH7-B3/GpL16-k0 | GpH7-B3 variant S239R/GpL16-k0 (antibody, human IgG1, copies: 2 + 2) heavy: not shown light: DIVMTQSPLSLPVTPGEPASISCQASESLVHSNRNTYLHWYLQKPGQSPQLLIYKVSNRFSGVPDRFSGSGSGTDFTLKISRVEAEDVGVYYCSQNTHVPPTFGQGTKVEIE
